Source: patent US20150225755A1, “Ergothioneine Production Through Metabolic Engineering” (priority 2012, published 2015)

Key:
[1] = biological target: OvoA (Erwinia tasmaniensis, UniProt B2VFD8); test: OvoA activity, oxygen consumption assay / kinetic analysis; type: biochemical; settings: air-saturated HEPES buffer
Source text: (§1) Two different assays were developed for both EgtB and OvoA catalysis (FIG. 3). Both EgtB and OvoA are proposed to be oxidases,^[9-10] which catalyze the oxidative coupling between His and Cys to form the C—S bond. At the same time, sulfur is oxidized to sulfoxide. The overall process is a four-electron oxidation process (FIG. 1) similar to the case of the isopenicillin N synthase.^[12] In the initial report by Seebeck, they monitored the reaction by monitoring the absorption changes at 260 nm because the oxidative products (3 or 6, FIG. 1) have absorptions in this region. However, it is not very sensitive. Oxygen is needed because there was no detectable product formation under anaerobic conditions. Based on this feature, we developed the EgtB and OvoA activity assays by monitoring the oxygen consumption rate (FIG. 3-I-B) using the NeoFoxy oxygen electrode (FIG. 3-I-A). This assay (FIG. 3-I-B) was used as the routine assay to optimize the conditions for EgtB and OvoA activities.
(§2) For oxygenase or oxidase-catalyzed reaction, potential problems include the presence of side-reactions, non-productive oxygen consumption, or oxidative inactivation of enzyme itself. Multiple activity assays will provide useful information to analyze those situations. To achieve this goal, besides the oxygen consumption assay, we have also developed a ^1H-NMR assay to directly monitor the product formation (FIG. 3-II). In ^1H-NMR, the chemical shifts of the imidazole H-atoms in both the products (3 and 6, FIG. 3-II) and the substrates (1 and 2) are well-separated from the rest of the reaction mixture. Thus, the reaction mixture can be analyzed routinely without the need of a product separation. In FIG. 3-II-B (OvoA catalysis), the signals with chemical shifts at 6.93 ppm and 7.70 ppm are assigned to the two histidine imidazole H-atoms. The signal at 7.83 ppm is from the imidazole H-atom of the oxidative coupling product 6. While for the oxidative product 3 (EgtB catalysis), its imidazole H-atom has a chemical shift of 7.10 ppm (FIG. 3-II-B). […]

[2] = test system: N[C@@H](CS)C(=O)O; test: as above; type: biochemical, Erwinia tasmaniensis; settings: other: air-saturated HEPES buffer; coupling with hercynine (2)
Source text: as §1, §2

[3] = test system: C[N+](C)(C)[C@@H](Cc1cnc[nH]1)C(=O)[O-]; test: as above; type: biochemical, Erwinia tasmaniensis; settings: other: air-saturated HEPES buffer; coupling with Cys
Source text: as §1, §2

[4] = biological target: EgtB (Mycolicibacterium smegmatis, UniProt A0R5N0); test: EgtB activity using hercynine (2) and Cys as substrates; type: biochemical, Mycobacterium smegmatis
Source text: as §1
According to the initial reports from Seebeck,^[9-10] EgtB and OvoA distinguish themselves from each other by both their substrate preferences and their product C—S bond regio-selectivity (FIG. 1). The C—S bond in ergothioneine (5) is located at the histidine ε-carbon, while for ovothiol, the C—S bond is located at the histidine δ-carbon (8). Their substrate preferences are also different. […]

[5] = biological target: T1, NcEgt-1 (Neurospora crassa, UniProt Q7RX33); test: NcEgt-1 catalysed oxidative coupling of hercynine (2) and Cys to form 4; type: biochemical
T1 sequence (Q7RX33 whole entry, looked up): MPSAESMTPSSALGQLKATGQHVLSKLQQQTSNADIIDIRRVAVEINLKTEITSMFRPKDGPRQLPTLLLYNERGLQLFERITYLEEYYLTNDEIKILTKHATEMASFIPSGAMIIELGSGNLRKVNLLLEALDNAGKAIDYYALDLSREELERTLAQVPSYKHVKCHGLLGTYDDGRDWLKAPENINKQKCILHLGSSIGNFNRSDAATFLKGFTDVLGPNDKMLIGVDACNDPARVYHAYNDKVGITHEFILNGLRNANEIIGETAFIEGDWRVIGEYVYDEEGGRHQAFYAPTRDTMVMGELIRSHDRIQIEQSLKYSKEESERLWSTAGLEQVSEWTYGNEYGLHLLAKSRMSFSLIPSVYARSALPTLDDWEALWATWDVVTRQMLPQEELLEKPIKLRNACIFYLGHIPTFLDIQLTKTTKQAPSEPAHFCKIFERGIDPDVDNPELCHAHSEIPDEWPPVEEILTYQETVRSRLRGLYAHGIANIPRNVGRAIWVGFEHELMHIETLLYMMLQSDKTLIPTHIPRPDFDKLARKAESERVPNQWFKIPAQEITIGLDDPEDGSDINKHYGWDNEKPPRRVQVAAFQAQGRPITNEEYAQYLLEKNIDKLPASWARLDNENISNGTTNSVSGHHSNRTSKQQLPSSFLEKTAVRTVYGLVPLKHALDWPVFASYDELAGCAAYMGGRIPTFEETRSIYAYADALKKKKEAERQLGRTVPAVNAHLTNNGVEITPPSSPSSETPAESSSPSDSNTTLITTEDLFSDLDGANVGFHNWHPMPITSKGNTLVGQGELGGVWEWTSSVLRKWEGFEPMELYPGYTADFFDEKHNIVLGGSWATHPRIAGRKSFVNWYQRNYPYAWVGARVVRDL
Source text: In the above section, we have successfully solved the EgtE problems, which enable ergothioneine production through metabolic engineering. However, the original ergothioneine biosynthetic pathway (FIG. 1A) is not efficient. To solve this problem, we initiated the search for enzymes that can oxidatively couples hercynine (2) and Cys directly as outlined in FIG. 2. Two of such enzymes (OvoA in FIG. 1B and NcEgt-1 from Neurospora crassa^[13]) have been identified by a combination of bioinformatics analysis and activity analysis using oxygen and ^1H-NMR assays.
Based on this exciting discovery, we have also examined another protein NcEgt-lfrom Neurospora crassa^[13].

C[N+](C)(C)[C@@H](Cc1cnc[nH]1)C(=O)[O-] [hercynine]
kcat for the oxidative coupling between Cys and hercynine (2) [1]: 4.5 ± 0.083 s⁻¹

OvoA (Erwinia tasmaniensis Et1/99)
Km [2]: 3190 ± 410 µM
Km [3]: 395 ± 30 µM

N[C@@H](CS)C(=O)O [Cys, cysteine]
recognition as substrate by EgtB [4]: cannot recognize Cys as the substrate

B1: NcEgt-1: enzyme from Neurospora crassa that catalyzes oxidative coupling of hercynine and cysteine (protein)
chain: MPSAESMTPSSALGQLKATGQHVLSKLQQQTSNADIIDIRRVAVEINLKTEITSMFRPKDGPRQLPTLLLYNERGLQLFERITYLEEYYLTNDEIKILTKHATEMASFIPSGAMIIELGSGNLRKVNLLLEALDNAGKAIDYYALDLSREELERTLAQVPSYKHVKCHGLLGTYDDGRDWLKAPENINKQKCILHLGSSIDKVGITHEFILNGLRNANEIIGETAFIEGDWRVIGEYVYDEEGGRHQAFYAPTRDTMVMGELIRSHDRIQIEQSLKYSKEESERLWSTAGLEQVSEWTYGNEYGLHLLAKSRMSFSLIPSVYARSALPTLDDWEALWATWDVVTRQMLPQEELLEKPIKLRNACIFYLGHIPTFLDIQLTKTTKQAPSEPAHFCKIFERGIDPDVDNPELCHAHSEIPDEWPPVEEILTYQETVRSRLRGLYAHGIANIPRNVGRAIWVGFEHELMHIETLLYMMLQSDKTLIPTHIPRPDFDKLARKAESERVPNQWFKIPAQEITIGLDDPEDGSDINKHYGWDNEKPPRRVQVAAFQAQGRPITNEEYAQYLLEKNIDKLPASWARLDNENISNGTTNSVSGHHSNRTSKQQLPSSFLEKTAVRTVYGLVPLKHALDWPVFASYDELAGCAAYMGGRIPTFEETRSIYAYADALKKKKEAERQLGRTVPAVNAHLTNNGVEITPPSSPSSETPAESSSPSDSNTTLITTEDLFSDLDGANVGFHNWHPMPITSKGNTLVGQGELGGVWEWTSSVLRKWEGFEPMELYPGYTADFFDEKHNIVLGGSWATHPRIAGRKSFVNWYQRNYPYAWVGARVVRDL
modifications: Neurospora crassa OR74A
notes: enzyme from Neurospora crassa that catalyzes oxidative coupling of hercynine and cysteine
activity of 2→4 conversion compared with OvoA [5]: same order of magnitude as OvoA
